From publication PMC2690687

Molecular target: Epstein-Barr Nuclear Antigen 1 (EBNA1), wild type (Epstein-Barr virus) (UniProt P03211)

Substance: Epstein-Barr Nuclear Antigen 1 (EBNA1), wild type (from UniProt P03211 1-641) (natural protein)
- transactivation of TKp-luciferase reporters with one to 20 EBNA1-binding sites, 20 sites over a single site, C33a cells: 150 fold
